The chains are these.
B1: FMDV capsid protein VP3 (other)
chain: GIFPVACSDGYGGLVTTDPKTADPVYGKVFNPPRNLLPGRFTNLLDVAEACPTFLHFDGDVPYVTTKTDSDRVLAQFDLSLAAKHMSNTFLAGLAQYYTQYSGTINLHFMFTGPTDAKARYMVAYAPPGMEPPKTPEAAAHCIHAEWDTGLNSKFTFSIPYLSAADYAYTASDVAETTNVQGWVCLFQITHGKADGDALVVLASAGKDFDLRLPVDARTQ
B2: FMDV capsid protein VP1 (other)
chain: TTSAGESADPVTATVENYGGETQVQRRQHTDIAFILDRFVKVKPKEQVNVLDLMQIPAHTLVGALLRTATYYFSDLELAVKHEGDLTWVPNGAPETALDNTTNPTAYHKEPLTRLALPYTAPHRVLATVYNGSSKYGDTSTNNVRGDLQVLAQKAERTLPTSFNFGAIKATRVTELLYRMKRAETYCPRPLLAIQPSDARHKQRIVAPAKQLL

In one experiment the target is FMDV capsid protein VP0 (foot-and-mouth disease virus, UniProt Q6PMV1 218-504). Kind of experiment: size exclusion HPLC of the U1P1 protease-treated product.
The experiment “FMDV capsid protein VP3” has as its target B1. The experiment is described as above.

With B1, in the experiment with FMDV capsid protein VP0, the binding result was “binds”.
With B2, the binding result with FMDV capsid protein VP3 and in the experiment with FMDV capsid protein VP0 was “binds” in each case.

(Values after patent publication US20100183649A1 (ACADEMIA SINICA, published 2010).)
